Laboratory results from PMC12391199.

Assays:
[1] = biological target: portal protein gp4 of bacteriophage Epsilon15 (portal complex) (bacteriophage Epsilon15); assay: cryo-EM structure; asymmetric single-particle reconstruction of whole ϵ15 virions (iodixanol-purified, in PBS, graphene oxide-coated grids, Titan Krios 300 kV, RELION 2.0), with focused refinement of the portal at ~7 Å
[2] = biological target: tail hub of bacteriophage Epsilon15 (bacteriophage Epsilon15); assay: as above

Substance	stoichiometry N [1]	stoichiometry N [2]
portal protein gp4 of bacteriophage Epsilon15 (portal complex) (natural protein)	12	
tail hub of bacteriophage Epsilon15 (complex)		6
